Measurements from publication PMC8960383, “A Nanobody-Based Toolset to Monitor and Modify the Mitochondrial GTPase Miro1” (Frontiers in Molecular Biosciences, 2022).

B1: Fbox-M41 (VHH)
VHH: EVQLVESGGGLVHPGGSLRISCAASGFSFNSSAMSWARQAPGKGLEWVSGIQADGTTGYAHSVKGRFNISRDNAKNIVYLQMSSLKPEDSAVYYCAKEGWSTVVFGSRDYWGQGTQVTVSS
B2: Fbox-M114 (VHH)
VHH: EVQLQESGGGLVQPGGSLRLSCTASGFPVSSAAMSWARQSPGKELEWVSGIYTDGSADYADSLKGRFTISRDDVENTINLQMNSLKPEDTAVYYCKTDWWAGPSGYVAVWGQGTLVTVSS
B3: Miro1-specific nanobody M11 (VHH)
VHH: QVQLVESGGGSVQPGGSLRLSCAASGFSFSSNVMSWARQAPGKGLEWVSGIYVDGRTHYADSVKGRFTISRDNAKNTVYLQMNSLKPEDTAVYYCAAAGDLSGYSFSPYDYDYWGQGTQVTVSS
notes: Cloned into pHEN6C; also called M11-Nb; M11 nanotrap; source: E. coli, purified (IMAC, SEC)
B4: Miro1-specific nanobody M41 (VHH)
VHH: EVQLVESGGGLVHPGGSLRISCAASGFSFNSSAMSWARQAPGKGLEWVSGIQADGTTGYAHSVKGRFNISRDNAKNIVYLQMSSLKPEDSAVYYCAKEGWSTVVFGSRDYWGQGTQVTVSS
notes: Cloned into pHEN6C; also called M41-Nb; M41 nanotrap; source: E. coli, purified (IMAC, SEC)
B5: Miro1-specific nanobody M85 (VHH)
VHH: DVQLVESGGGKVQSGGSLRLSCAASGSKLDDYSIGWFRQAPGKGREGISCITMKTGSFEYVDSVKGRFTISADNAKNTVHLQMNNLKPEDTGIYYCAALRSRGLFCVTSPYEYDLWGQGSPVTVSS
notes: Cloned into pHEN6C; also called M85-Nb; M85 nanotrap; source: E. coli, purified (IMAC, SEC)
B6: Miro1-specific nanobody M114 (VHH)
VHH: EVQLQESGGGLVQPGGSLRLSCTASGFPVSSAAMSWARQSPGKELEWVSGIYTDGSADYADSLKGRFTISRDDVENTINLQMNSLKPEDTAVYYCKTDWWAGPSGYVAVWGQGTLVTVSS
notes: Cloned into pHEN6C; also called M114-Nb; M114 nanotrap; source: E. coli, purified (IMAC, SEC)
B7: Miro1-specific nanobody M189 (VHH)
VHH: EVQLVESGGGLVQPGGSLRLSCTASGFPVSSAAMSWARQSPGKELEWVSGIYTDGSADYADSLKGRFTISRDDVENTINLQMNNLKPEDTAIYYCNANFFEGSWYDYWGQGSPVTVSS
notes: Cloned into pHEN6C; also called M189-Nb; M189 nanotrap; source: E. coli, purified (IMAC, SEC)
B8: M41 chromobody (VHH)
VHH: EVQLVESGGGLVHPGGSLRISCAASGFSFNSSAMSWARQAPGKGLEWVSGIQADGTTGYAHSVKGRFNISRDNAKNIVYLQMSSLKPEDSAVYYCAKEGWSTVVFGSRDYWGQGTQVTVSS
notes: as the VHH of m10 (M41); cloned into the plasmid described as PCNA-chromobody (Panza et al., 2015); also called M41-Cb; source: HeLa, transfected, in living cells
B9: M85 chromobody (VHH)
VHH: DVQLVESGGGKVQSGGSLRLSCAASGSKLDDYSIGWFRQAPGKGREGISCITMKTGSFEYVDSVKGRFTISADNAKNTVHLQMNNLKPEDTGIYYCAALRSRGLFCVTSPYEYDLWGQGSPVTVSS
notes: as the VHH of m11 (M85); cloned into the plasmid described as PCNA-chromobody (Panza et al., 2015); also called M85-Cb; source: HeLa, transfected, in living cells
B10: M114 chromobody (VHH)
VHH: EVQLQESGGGLVQPGGSLRLSCTASGFPVSSAAMSWARQSPGKELEWVSGIYTDGSADYADSLKGRFTISRDDVENTINLQMNSLKPEDTAVYYCKTDWWAGPSGYVAVWGQGTLVTVSS
notes: as the VHH of m12 (M114); cloned into the plasmid described as PCNA-chromobody (Panza et al., 2015); also called M114-Cb; M114-CB; source: HeLa, transfected, in living cells

Tests used:
[1] = biological target: endogenous Miro1 (human (endogenous in HEK293 and HeLa)) (UniProt Q8IXI2)
endogenous Miro1 (human (endogenous in HEK293 and HeLa)), sequence (Q8IXI2 whole entry): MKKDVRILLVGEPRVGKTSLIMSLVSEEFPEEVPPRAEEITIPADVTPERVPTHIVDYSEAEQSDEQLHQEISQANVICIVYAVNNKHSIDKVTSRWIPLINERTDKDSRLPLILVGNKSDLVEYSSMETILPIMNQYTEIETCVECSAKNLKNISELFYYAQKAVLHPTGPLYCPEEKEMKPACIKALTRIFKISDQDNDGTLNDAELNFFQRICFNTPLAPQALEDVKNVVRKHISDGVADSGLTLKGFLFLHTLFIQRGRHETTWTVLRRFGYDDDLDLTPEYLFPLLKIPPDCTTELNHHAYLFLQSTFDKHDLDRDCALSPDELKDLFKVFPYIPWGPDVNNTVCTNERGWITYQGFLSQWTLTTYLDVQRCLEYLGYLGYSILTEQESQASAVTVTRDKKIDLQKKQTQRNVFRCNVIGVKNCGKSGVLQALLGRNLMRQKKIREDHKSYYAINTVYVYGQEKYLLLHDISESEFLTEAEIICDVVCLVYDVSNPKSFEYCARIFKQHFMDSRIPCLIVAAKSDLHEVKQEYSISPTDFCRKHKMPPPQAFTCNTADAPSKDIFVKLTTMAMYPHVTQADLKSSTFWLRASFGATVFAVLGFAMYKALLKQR

GFP-Miro1 (human) = GFP-Miro1 (human) (UniProt Q8IXI2)
GFP-Miro1 (human), sequence (Q8IXI2 whole entry): as above

eGFP-cGTPase-TMD [2] = biological target: T1, eGFP-cGTPase-TMD (Homo sapiens, UniProt Q8IXI2); experiment: pull-down; Nbs coupled to NHS-Sepharose (nanotraps) incubated 16 h at 4°C with the soluble fraction of HEK293 cells transiently expressing GFP-Miro1, GFP-tagged Miro1 deletion constructs or GFP (lysis buffer with 1% Triton X-100); immunoblot of bound fractions with anti-GFP and anti-GAPDH; conditions: one partner purified
T1 construct: human Miro1 isoform 1 (UniProtKB Q8IXI2-1), C-terminal GTPase domain with the transmembrane domain; made from the GFP-Miro1 plasmid by site directed mutagenesis; also called C-terminal GTPase domain of Miro1; source: HEK293, transfected, in lysate; HeLa, transfected, in living cells; not shown: GFP, N-terminal, kept
T1 sequence (Q8IXI2 whole entry, looked up, the tested form may be a part, canonical isoform): as the sequence (Q8IXI2 whole entry) above

Miro1 isoform 2 = biological target: T2, Miro1 isoform 2 (Homo sapiens (endogenous, HEK293), UniProt Q8IXI2-2); experiment: affinity purification with mass spectrometry; mono- and bivalent M41 and M114 nanotraps incubated with HEK293 lysate, compared to control nanotraps; three technical replicates; label-free quantification, iBAQ; conditions: one partner purified
T2 construct: endogenous human Miro1 isoform 2, identified by mass spectrometry (search against the Uniprot Homo sapiens database; one unique peptide); source: endogenous, HEK293 lysate
T2 sequence (Q8IXI2 other isoform, or with tags, fused parts or gaps): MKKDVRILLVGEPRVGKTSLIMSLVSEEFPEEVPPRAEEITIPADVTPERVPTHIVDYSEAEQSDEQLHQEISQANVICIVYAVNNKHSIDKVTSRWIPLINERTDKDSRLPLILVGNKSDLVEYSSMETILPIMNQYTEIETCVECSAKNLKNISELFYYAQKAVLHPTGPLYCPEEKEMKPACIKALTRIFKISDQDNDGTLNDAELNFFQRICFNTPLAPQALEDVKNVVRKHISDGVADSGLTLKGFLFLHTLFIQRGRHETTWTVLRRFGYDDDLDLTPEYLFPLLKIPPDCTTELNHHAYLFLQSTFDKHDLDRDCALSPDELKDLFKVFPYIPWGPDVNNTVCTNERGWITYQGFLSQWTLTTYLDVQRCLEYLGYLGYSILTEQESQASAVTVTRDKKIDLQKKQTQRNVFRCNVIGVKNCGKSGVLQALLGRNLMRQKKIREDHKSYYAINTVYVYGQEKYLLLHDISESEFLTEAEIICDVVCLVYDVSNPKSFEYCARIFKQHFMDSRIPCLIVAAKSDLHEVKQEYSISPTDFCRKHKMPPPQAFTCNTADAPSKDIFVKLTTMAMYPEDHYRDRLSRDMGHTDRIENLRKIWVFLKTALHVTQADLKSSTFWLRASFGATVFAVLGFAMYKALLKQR

Miro1 isoform 3 = biological target: T3, Miro1 isoform 3 (Homo sapiens (endogenous, HEK293), UniProt Q8IXI2-3); experiment: as above; conditions: one partner purified
T3 construct: endogenous human Miro1 isoform 3, identified by mass spectrometry (search against the Uniprot Homo sapiens database; 31 razor peptides); source: endogenous, HEK293 lysate
T3 sequence (Q8IXI2 other isoform, or with tags, fused parts or gaps): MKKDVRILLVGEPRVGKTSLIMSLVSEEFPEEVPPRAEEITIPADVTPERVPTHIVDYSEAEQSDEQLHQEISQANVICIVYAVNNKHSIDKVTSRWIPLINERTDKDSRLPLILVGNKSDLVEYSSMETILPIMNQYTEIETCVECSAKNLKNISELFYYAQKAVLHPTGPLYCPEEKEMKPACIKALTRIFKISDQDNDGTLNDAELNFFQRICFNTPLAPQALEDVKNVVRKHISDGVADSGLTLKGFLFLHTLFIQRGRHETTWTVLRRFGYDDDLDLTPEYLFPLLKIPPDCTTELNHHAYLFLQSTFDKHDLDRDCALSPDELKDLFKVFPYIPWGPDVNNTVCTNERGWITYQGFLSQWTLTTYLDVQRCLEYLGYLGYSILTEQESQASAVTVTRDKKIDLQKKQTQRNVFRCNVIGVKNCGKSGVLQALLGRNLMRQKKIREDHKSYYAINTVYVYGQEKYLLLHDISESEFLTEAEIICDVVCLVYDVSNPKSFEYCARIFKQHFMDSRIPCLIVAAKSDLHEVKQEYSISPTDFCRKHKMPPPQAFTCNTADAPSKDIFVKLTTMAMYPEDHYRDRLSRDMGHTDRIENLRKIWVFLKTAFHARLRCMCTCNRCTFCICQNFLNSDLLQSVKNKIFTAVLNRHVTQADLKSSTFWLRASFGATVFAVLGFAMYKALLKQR

eGFP-cGTPase-TMD [3] = biological target: T1, eGFP-cGTPase-TMD; experiment: live-cell fluorescence imaging (relocalisation of the chromobody); TagRFP chromobodies transiently co-expressed with GFP-Miro1 or GFP-tagged Miro1 deletion constructs in HeLa cells; conditions: partners not purified

Row | Binder | binding result (eGFP-cGTPase-TMD [2]) | binding result (eGFP-cGTPase-TMD [3]) | also measured
1 | B1 | – | – | decrease of the anti-Miro1 IF signal in HeLa cells 24 h after transfection of the Fbox-Nb (targeted degradation of endogenous Miro1; Fbox-NR control less than ∼4%) [1]: 16%; reduction of the GFP signal in HeLa cells coexpressing the Fbox-Nb construct and GFP-Miro1 (targeted degradation) (GFP-Miro1 (human)): 50%
2 | B2 | – | – | decrease of the anti-Miro1 IF signal in HeLa cells 24 h after transfection of the Fbox-Nb (targeted degradation of endogenous Miro1; Fbox-NR control less than ∼4%) [1]: 30%; reduction of the GFP signal in HeLa cells coexpressing the Fbox-Nb construct and GFP-Miro1 (targeted degradation) (GFP-Miro1 (human)): 80%
3 | B3 | binds | – | –
4 | B4 | binds | – | –
5 | B5 | binds | – | –
6 | B6 | binds | – | binding result (Miro1 isoform 2): binds; binding result (Miro1 isoform 3): binds
7 | B7 | binds | – | –
8 | B8 | – | binds | –
9 | B9 | – | binds | –
10 | B10 | – | binds | –
